Source: patent publication US20150274829A1

Molecular target: hu IGF-1R(ECD)-C3-muIgG1 Fc (human; mouse)
Test: ORIGEN dose response competition on IGF-1R(ECD)-C3-muFc beads; competitor 1 nM Ru-IGF-1

- Max (%), maximum level of inhibition at 1 µM antibody concentration: 91%
Substance: murine anti-IGF-1R antibody αIR3 (Calbiochem)
